Source: patent US20070049518A1, “Novel method of treatment of inflammatory skin conditions” (priority 2005, published 2007)
Like-named read-outs stand apart in the source and are kept apart here.

Assays:
[1] = system: Human skin epidermal keratinocytes; assay: Keratinocyte activation, IL-8 production; assay type: cell-based; conditions: 48 hours, aureolysin 50 μg/ml
Source text: Activated keratinocytes produce IL-8, a proinflammatory chemokine. Many bacterial products cause the activation of keratinocytes. Aureolysin may be evaluated for its effects on IL-8 production by keratinocytes. Human skin epidermal keratinocytes (TCS Cellworks) are maintained as per instructions. Proliferating cultures are trypsinised, harvested, treated with a trypsin inhibitor and resuspended in growth medium at approximately 50,000 cells/well, to provide confluent monolayers in 96 well plates. Cells are incubated overnight at 37° C. at 5% CO2 to allow recovery, the spent medium aspirated from the wells and replaced with fresh growth medium. The cells are incubated at 37° C. at 5% CO2 for a further 24 or 48 hours with aureolysin or buffer control.
The supernatants are removed from each well and the concentration of IL-8 is determined using a human IL-8 ELISA development kit from R&D systems (Catalog Number: DY208) using the manufacturers instructions.
In these experiments, the cells are incubated at 37° C. at 5% CO2 for 48 hours with aureolysin or buffer control. Poly IC and lipoteichoic acid (LTA), which stimulate IL-8 production in keratinocytes were used as positive controls.

single chain pro-uPA = assay: Activation of pro-uPA by aureolysin; assay type: biochemical; conditions: Expt. 1, 2.5 h
[2] = molecular target: T1, proenzyme of human rheumatoid synovial fibroblast collagenase (proMMP-1) (Homo sapiens, UniProt P03956); assay type: biochemical; conditions: for α1-chain ¾ - length product: aureolysin 3 μg/ml and/or 1 mM APMA
T1 construct: the proenzyme of human rheumatoid synovial fibroblast collagenase (Calbiochem); purchased Calbiochem; host or cells: human rheumatoid synovial fibroblasts (as the product's name says)
T1 sequence (P03956 20-469): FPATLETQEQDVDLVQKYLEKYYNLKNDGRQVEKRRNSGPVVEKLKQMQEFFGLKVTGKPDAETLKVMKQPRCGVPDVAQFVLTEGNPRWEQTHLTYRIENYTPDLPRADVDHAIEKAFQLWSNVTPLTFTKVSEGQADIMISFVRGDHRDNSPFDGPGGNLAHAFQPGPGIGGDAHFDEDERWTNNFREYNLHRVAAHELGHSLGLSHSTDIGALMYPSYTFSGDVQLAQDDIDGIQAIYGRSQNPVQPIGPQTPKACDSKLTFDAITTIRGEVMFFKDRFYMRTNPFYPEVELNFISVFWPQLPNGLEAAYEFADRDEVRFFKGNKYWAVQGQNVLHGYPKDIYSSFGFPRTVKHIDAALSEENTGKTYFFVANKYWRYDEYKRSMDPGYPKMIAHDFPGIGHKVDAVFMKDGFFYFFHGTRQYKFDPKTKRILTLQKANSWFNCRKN
Method: (§1) Collagenase activity in the samples was then determined by incubation at 25° C. in TCNB containing 0.1 μg/ml (pro)MMP-1 and 0.16 mg/ml porcine type I collagen (MD Biosciences).

[3] = system: proenzyme of human rheumatoid synovial fibroblast collagenase (proMMP-1); assay type: biochemical; conditions: aureolysin alone±APMA
Method: as §1

aureolysin: metalloprotease (EC 3.4.24.29) secreted by Staphylococcus aureus, single chain of 301 amino acids
IL-8 ± SE [1]: 687 pg/mL
IL-8 ± SE ([1]; listed as Aureolysin): 687 ± 0.7 pg/mL
Urokinase activity after pro-uPA activation (single chain pro-uPA; aureolysin 0.1 μg/ml, MES pH 5.6): 2.31 A405/0.5 h/μg
Urokinase activity after pro-uPA activation (single chain pro-uPA; aureolysin 0.1 μg/ml, Tris-HCl pH 7.5): 0.65 A405/0.5 h/μg
Urokinase activity after pro-uPA activation (single chain pro-uPA; aureolysin 0.3 μg/ml, MES pH 5.6): 3.76 A405/0.5 h/μg
Urokinase activity after pro-uPA activation (single chain pro-uPA; aureolysin 0.3 μg/ml, Tris-HCl pH 7.5): 1.43 A405/0.5 h/μg
Urokinase activity after pro-uPA activation (single chain pro-uPA; aureolysin 1 μg/ml, MES pH 5.6): 4.68 A405/0.5 h/μg
Urokinase activity after pro-uPA activation (single chain pro-uPA; aureolysin 1 μg/ml, Tris-HCl pH 7.5): 3.29 A405/0.5 h/μg
α1-chain ¾ - length product ([2]; Time 0 h): 0 arbitrary units
α1-chain ¾ - length product ([2]; Time 0.5 h): 1709 arbitrary units
α1-chain ¾ - length product ([2]; Time 1 h): 3726 arbitrary units
α1-chain ¾ - length product ([2]; Time 1.5 h): 5115 arbitrary units
α1-chain ¾ - length product ([2]; Time 2 h): 8742 arbitrary units
α1-chain ¾ - length product ([2]; Time 3 h): 12718 arbitrary units
α1-chain ¾ - length product ([2]; Time 4 h): 16882 arbitrary units
α1-chain ¾ - length product ([2]; Time 5 h): 17558 arbitrary units
α1-chain ¾ - length product ([2]; Time 6 h): 19436 arbitrary units
Relative rate of collagen cleavage ([2]; relative to untreated control (MMP-1 alone = 1)): 3
collagenase activity of control incubations without proMMP-1 (in words) [3]: no activity
